Data: US11390894B2, “Biological processes for the production of aryl sulfates” (CysBio ApS, priority 2014, dated 2022)

Key:
kaempferol = test: Percent conversion of substrate by E. coli cells expressing sulfotransferases; type: cell-based, Escherichia coli; settings: 87 μM kaempferol, M9 medium, overnight 37° C.
Procedure: (§1) The concentration of p-courmaric acid (pHCA) and zosteric acid in the supernatant was quantified by high performance (HPLC) and compared to chemical standards. HPLC was done on a Thermo setup using a HS-F5 column and mobile phases: 5 mM ammonium formate pH 4.0 (A) and acetonitrile (B) at 1.5 mL min-1, using a gradient elution starting at 5% B. From 0.5 min after injection to 7 min, the fraction of B increased linearly from 5% to 60%, and between 9.5 min and 9.6 the fraction of B decreased back to 5%, and remaining there until 12 min. pHCA and zosteric acid were quantified by measuring absorbance at 277 nm.
(§2) Different sulfotransferases were examined for their substrate specificities against three substrates. We tested the sulfotransferases mentioned in example 1, as well as additional ones. The genes encoding these were cloned as described in example 1 using the primers shown in the table below from cDNA libraries of the respective organisms, except for the SULT1A1 from rat (Rattus norvegicus) codon-optimized for E. coli (described above). The resulting vectors were transformed into BL21(DE3)pLysS.
(§3) The resulting strains were grown in M9 medium containing either 100 μM pHCA, 95 μM resveratrol or 87 M kaempferol. The cultures were grown overnight at 37° C., 300 rpm. The following day the supernatants were isolated and examined by HPLC as described in example 1.

pHCA [1] = test: as above; type: cell-based, Escherichia coli; settings: 100 μM pHCA, M9 medium, overnight 37° C.
Procedure: as §1, §2, §3

resveratrol = test: as above; type: cell-based, Escherichia coli; settings: 95 μM resveratrol, M9 medium, overnight 37° C.
Procedure: as §1, §2, §3

p-coumaric acid = test: Production of zosteric acid in Saccharomyces cerevisiae expressing SULT1A1; type: cell-based; settings: strain CEN.PK102-5B, modified Delft medium, 10 mM p-coumaric acid, overnight 30° C., supernatant
Procedure: as §1
The gene encoding aryl sulfotransferase SULT1A (Example 1) was cloned after a TEF1 promoter into an episomal plasmid with a 2-micron origin of replication as follows. The gene was amplified by PCR using primers CBJP633 and CBJP634. Alternatively, the gene was codon-optimized for E. coli and synthesized by GeneArt and amplified by primers CBJP635 and CBJP636. The TEF1 promoter (Jensen et al., 2014, FEMS Yeast Res 14: 238-248) was amplified by PCR using the primers PTEF1_fw and PTEF1_rv. Plasmid pCfB132 (Jensen et al., supra) was digested by restriction enzymes AsiSI and Nt.Bsml. […]

pHCA [2] = test: Production of zosteric acid in E. coli from pHCA through heterologous expression of sulfotransferases; type: cell-based, Escherichia coli; settings: culture media; M9 glucose, 0.1 mM IPTG, 0.1 mM pHCA, four days of growth
Description: A range of aryl sulfotransferases including SULT1A1 Rattus norvegicus (SEQ ID NO: 1), SULT1A1 Homo sapiens (SEQ ID NO: 2), SULT1A1 Equus caballus (SEQ ID NO: 3), SULT1A1 Sus scrofa domesticus (SEQ ID NO: 4), SULT1A1 Canis lupus familiaris (SEQ ID NO: 5) and SULT1E1 Gallus gallus domesticus (SEQ ID NO: 6) were expressed in Escherichia coli. […]. The nucleotide sequence of the gene encoding SEQ ID NO: 2 was codon optimized for expression in Escherichia coli (GeneArt, Life Technologies) and amplified by PCR using the primers in Table 1. The pETDuet-1 plasmid was digested with restriction endonucleases Ncol and Sal. The PCR products were then individually cloned into the plasmid pETDuet-1 using the Gibson reaction (New England Biolabs). The resulting plasmids were transformed into BL21(DE3)pLysS (Life Technologies).
The strains were grown in M9 minimal media containing glucose as a carbon source, and 0.1 mM IPTG for induction of gene expression as well as 0.1 mM p-coumaric acid (pHCA). After four days of growth, samples were withdrawn by filtration and analyzed by HPLC.
as §1
Zosteric acid was formed with an aryl sulfotransferase heterologously expressed in a microorganism exemplified by E. coli supplied with the substrate.

Molecule	percent conversion of kaempferol (kaempferol)	percent conversion of pHCA (pHCA [1])	percent conversion of resveratrol (resveratrol)	μM ZA (averages and standard deviations of replicate experiments) (p-coumaric acid)	Zosteric acid formed (pHCA [2])	pHCA remaining (pHCA [2])
SULT1A1 Rattus norvegicus: aryl sulfotransferase SULT1A1 from Rattus norvegicus (SEQ ID NO: 1), expressed in host cells (protein, listed as Rattus norvegicus) MEFSRPPLVHVKGIPLIKYFAETIGPLQNFTAWPDDLLISTYPKSGTTWMSEILDMIYQGGKLEKCGRAPIYARVPFLEFKCPGVPSGLETLEETPAPRLLKTHLPLSLLPQSLLDQKVKVIYIARNAKDVVVSYYNFYNMAKLHPDPGTWDSFLENFMDGEVSYGSWYQHVKEWWELRHTHPVLYLFYEDIKENPKREIKKILEFLGRSLPEETVDSIVHHTSFKKMKENCMTNYTTIPTEIMDHNVSPFMRKGTTGDWKNTFTVAQNERFDAHYAKTMTDCDFKFRCEL	95%	93%	93%	37.8 ± 5.7 µM	0.10 mM	0.02 mM
SULT1A1 Rattus norvegicus (Codon-optimized for E. coli): SULT1A1 from rat expressed from a gene codon-optimized for E. coli (protein, UniProt P17988 1-291, looked up) Sulfotransferase 1A1: MEFSRPPLVHVKGIPLIKYFAETIGPLQNFTAWPDDLLISTYPKSGTTWMSEILDMIYQGGKLEKCGRAPIYARVPFLEFKCPGVPSGLETLEETPAPRLLKTHLPLSLLPQSLLDQKVKVIYIARNAKDVVVSYYNFYNMAKLHPDPGTWDSFLENFMDGEVSYGSWYQHVKEWWELRHTHPVLYLFYEDIKENPKREIKKILEFLGRSLPEETVDSIVHHTSFKKMKENCMTNYTTIPTEIMDHNVSPFMRKGTTGDWKNTFTVAQNERFDAHYAKTMTDCDFKFRCEL	38%	73%	58%	46.2 ± 3.5 µM		
